Test results taken from patent publication US20150093375A1.

Molecular target: Fzd4 (Homo sapiens (Human)) (UniProt Q9ULV1)
Test: cell-based or functional assay

Chain of UniProt Q9ULV1 (Q9ULV1 37-537 limits assumed, form in doubt): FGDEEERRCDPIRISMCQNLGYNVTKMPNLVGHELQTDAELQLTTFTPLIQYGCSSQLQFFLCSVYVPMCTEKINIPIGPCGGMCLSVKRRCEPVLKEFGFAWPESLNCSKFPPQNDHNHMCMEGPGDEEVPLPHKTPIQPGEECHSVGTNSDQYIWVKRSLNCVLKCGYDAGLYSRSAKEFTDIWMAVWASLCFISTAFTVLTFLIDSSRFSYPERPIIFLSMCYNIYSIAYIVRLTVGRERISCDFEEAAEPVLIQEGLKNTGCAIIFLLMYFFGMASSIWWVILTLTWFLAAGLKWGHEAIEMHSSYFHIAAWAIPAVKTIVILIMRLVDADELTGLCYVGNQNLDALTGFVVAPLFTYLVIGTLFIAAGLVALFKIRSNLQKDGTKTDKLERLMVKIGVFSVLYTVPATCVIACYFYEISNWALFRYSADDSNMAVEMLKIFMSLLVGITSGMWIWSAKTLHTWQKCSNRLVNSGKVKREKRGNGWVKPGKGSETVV

In the case of recombinant Norrin (ligand), the Topflash reporter activity (firefly divided by renilla), cells overexpressing TSPAN12 against control cells, 10 nM recombinant Norrin was 4 fold.
